Measurements taken from publication doi:10.1101/2022.08.07.503104, “A tripartite complex HIV-1 Tat-cyclophilin A-capsid protein enables Tat encapsidation that is required for HIV-1 infectivity” (bioRxiv, 2022).

How the values were obtained:
Recombinant human CypA [1] = target: T1, Recombinant human CypA (human, UniProt P62937 1-165, Monolith RED-NHS 2nd generation fluorescent label, in the MST experiments only); assay: MST; fluorescently labeled CypA at 50 nM, partner titrated; where indicated CypA first mixed with 20 µM CA or 1 µM Tat; 20°C, 150 mM NaCl, 50 mM citrate, pH 7.3, 0.05% Tween; conditions: both partners purified
T1 construct: extra N-terminal gly residue left after TEV cleavage; cyclophilin A (CypA), human; Unlabeled in SEC and SPR, labeled in MST; also called cyclophilin A; labeled CypA; source: E. coli BL21 λDE3, purified (Ni-NTA, TEV cleavage, second Ni-NTA); not shown: His6, N-terminal, cleaved
T1 sequence (P62937 other isoform, or with tags, fused parts or gaps): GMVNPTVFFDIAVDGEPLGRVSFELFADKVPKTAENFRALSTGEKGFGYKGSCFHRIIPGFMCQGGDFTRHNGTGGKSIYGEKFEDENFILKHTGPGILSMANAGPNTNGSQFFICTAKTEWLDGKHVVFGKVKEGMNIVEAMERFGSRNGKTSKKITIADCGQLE

Recombinant human CypA [2] = target: T1, Recombinant human CypA; assay: SPR; Tat immobilised on a CM5S chip by amine coupling (~11000 RU); CypA or equimolecular CypA/CA mix at 370-6000 nM, one cycle kinetic titration, or CA at 2 µM; 25°C, 20 mM phosphate, 30 mM citrate, pH 7, 150 mM NaCl, 0.05% P20; two state fitting model; conditions: both partners purified

B1: Recombinant Tat (86 residues, BH10 isolate) (natural protein)
chain: MEPVDPRLEPWKHPGSQPKTACTNCYCKKCCFHCQVCFITKALGISYGRKKRRQRRRPPQGSQTHQVSLSKQPTSQSRGDPTGPKE
notes: HIV-1 Tat, BH10 isolate, 86 residues; source: E. coli, purified (as Vendeville et al., 2004); lyophilized
- Kd (Recombinant human CypA [1]): 243 ± 23 nM
- Kd (Recombinant human CypA [2]): 255 ± 10 nM
